Substrate in the data set: Nc1ncnc2c1ncn2[C@@H]1O[C@H](COP(=O)(O)OP(=O)(O)OP(=O)(O)O)[C@@H](O)[C@H]1O
Kind of data set: HPLC of inositol phosphates, Michaelis-Menten fit. The conditions noted are these: co-substrate Ins(3,4,5,6)P4 (preferred), 0.08-10 mM ATP, 1 mM MgCl2, HEPES pH 7.5, 25 C. It counts as biochemical, Arabidopsis thaliana.

By Km is commonly meant the concentration of substrate that gives half-maximal velocity.

B1: ITPK1 (AtITPK1) (Arabidopsis thaliana) (protein)
chain: MSDSIQERYLVGYALAAKKQHSFIQPSLIEHSRQRGIDLVKLDPTKSLLEQGKLDCIIHKLYDVYWKENLHEFREKCPGVPVIDLPEAIERLHNRVSMLEVITQLRFPVSDSERFGVPEQVVVMDSSVLSGGGALGELKFPVIAKPLDADGSAKSHKMFLIYDQEGMKILKAPIVLQEFVNHGGVIFKVYVVGDHVKCVKRRSLPDISEEKIGTSKGSLPFSQISNLTAQEDKNIEYGEDRSLEKVEMPPLSFLTDLAKAMRESMGLNLFNFDVIRDAKDANRYLIIDINYFPGYAKMPSYEPVLTEFFWDMVTKKNHV
notes: recombinant in E. coli Rosetta 2(DE3)pLysS, pOPINF, 3C-cleavable His tag (printed as C-terminal); Ni-NTA and Superdex 75
Consider B1, for which the Km is recorded as 0.77 ± 0.19 mM.

(Values after paper PMC7115839, “An ATP-responsive metabolic cassette comprised of inositol tris/tetrakisphosphate kinase 1 (ITPK1) and inositol pentakisphosphate 2-kinase (IPK1) buffers diphosphosphoinositol phosphate levels” (Biochemical Journal, 2020).)
